From patent US20260234247A1 (published 2026) come the findings set out here.

First the molecules themselves.
B1: LK-RB1-18 (antibody, human IgG4 S228P, kappa, V domains shown)
VH: QVQLKESGPGLVAPSQSLSITCTVSGFSLTNSGVTWIRQPPGKGLEWLGVIWGDGSTNYHSALISRLSISKDNSKSQVFLKLNSLQTDDTATYYCAKPHWDYYNMDYWGQGTSVTVSS
VL: DIQMTQTPSSLSASLGDRVTISCRASQDISNYLNWYQQKPDGTVKLLIYFTSRLHSGVPSRFSGSGSGTDYSLTISNLEQEDFATYFCQQGITLPLTFGAGTKLELKR
B2: LK-RB1-19 (antibody, human IgG4 S228P, kappa, V domains shown)
VH: QVQLKESGPGLVAPSQNLSITCTVSGFSLTSYGVSWVRQPPGKGLEWLGIIWGDGNTDYHSALISRLSIRKDNSKSQVFLKLNSLKSDDTATYYCAKPHWEYYTMDYWGQGTSVTVSS
VL: B1 VL with P8T, Y32F, F50S, S76A, F83V, I92N
B3: LK-RB1-20 (antibody, human IgG4 S228P, kappa)
heavy: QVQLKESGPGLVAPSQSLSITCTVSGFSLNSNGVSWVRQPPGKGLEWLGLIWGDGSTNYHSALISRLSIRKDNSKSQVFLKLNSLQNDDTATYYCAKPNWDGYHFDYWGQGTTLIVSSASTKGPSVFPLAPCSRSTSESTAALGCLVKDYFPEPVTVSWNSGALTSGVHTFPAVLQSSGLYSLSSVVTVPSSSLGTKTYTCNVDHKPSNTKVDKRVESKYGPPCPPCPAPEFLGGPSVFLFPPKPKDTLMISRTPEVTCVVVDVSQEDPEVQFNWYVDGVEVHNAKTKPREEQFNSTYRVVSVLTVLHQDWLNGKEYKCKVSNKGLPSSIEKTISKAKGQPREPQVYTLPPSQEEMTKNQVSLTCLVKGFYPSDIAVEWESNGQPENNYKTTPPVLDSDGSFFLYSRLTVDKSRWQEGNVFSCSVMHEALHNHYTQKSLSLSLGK
light: DIQMNQSPSSLSASLGDTITITCHASQNIDFWLSWYQQKPGNIPKLLIYKASNLHTGVPSRFSGSGSGTGFTLTISSLQPEDIATYYCQQGQSYPLTFGAGTKLELKRTVAAPSVFIFPPSDEQLKSGTASVVCLLNNFYPREAKVQWKVDNALQSGNSQESVTEQDSKDSTYSLSSTLTLSKADYEKHKVYACEVTHQGLSSPVTKSFNRGEC
B4: LK-RB1-14 (antibody, human IgG4 S228P, kappa, V domains shown)
VH: QVTLKESGPGILKPSQTLSLTCSFSGFSLSTSGMGVGWIRQPSGKGLEWLAHIWWDDDKYYNPSLKSQLTISKDTSRNQVFLKITSVDTADTATYYCARTELGRGDSWGQGTSVTVSS
VL: DILLTQSPAILSVSPGERVSFSCRASQSIGTSIHWYQQRTNGSPRLLIKYASESISGIPSRFSGSGSGTDFTLSINSVESEDIADYYCQQSYSWPYTFGGGTKLEIKR
B5: LK-RB1-15 (antibody, human IgG4 S228P, kappa, V domains shown)
VH: B4 VH with L12V, T31I, M34T, V36I, L69V, R77T, N78K, K83N, A98T, S107F
VL: B4 VL with E17D, S32N, Q38R, A51G, S67T, S74T
B6: LK-RB1-17 (antibody, human IgG4 S228P, kappa, V domains shown)
VH: QVQLQQPGAELVKPGASVKLSCEASGYTFTNYWIHWVKQRPGRGLEWIGRIAPNSGGTKYNEKFKTRATLTVDKASTTAYMQLSSLTSEDSAVYYCARLDGSPYYFDYWGQGTTLTVSS
VL: DIVMTQSQKFMSTSIGDRVSVTCKASQNVDTNVAWYQQKPGQSPKALIYSASYRYSGIPDRFTGSGSGTDFTLTISNVQSEDLAEYFCQQYNSYPYTFGGGTKLEIKR
B7: LK-RB1-8 (antibody, human IgG4 S228P, kappa, V domains shown)
VH: QVQLQQSGAELVRPGTSVKVSCKASGYAFSNYLIEWVKQRPGQGLEWIGVINPGSDGSTYNEKFKGKATLTADKSSNTAYMQLSSLTSEDSAVYFCARGDYGRSYGMDYWGQGTSVTVSS
VL: DIVMTQSQKFMSTTVGDRVSITCKASQNVGTAVVWYQQKPGQSPKLLIYSASNRYTGVPDRFTGSGSGTDFTLTISNMQSEDLADYFCQQYSSYMYTFGGGTKLEIKR
B8: LK-RB1-6 (antibody, human IgG4 S228P, kappa, V domains shown)
VH: QIQLVQSGPELKKPGETVKISCKASGYTFTTYGMSWVKQAPGKDLKWMGWINTFSGVPACADDFQGRFDFSAEPSDSTAHLQINNLKNEDTATYFCARRSYYGSRGWYFDVWGTGTTVTVSS
VL: DIVMTQSHKFMSTSVGDRVSITCTASEDVNTAVAWYQQKPGQSPKLLIYWASTRHTGVPDRFTGSGSGTDYTLTISSVQTEDLALYYCQQHYNTPYTFGGGTKLEIKR
B9: LK-RB1-7 (antibody, human IgG4 S228P, kappa, V domains shown)
VH: B8 VH
VL: DVQMIQSPSSLSASLGDIVTMTCQASQDTTINLNWFQQKPGKVPKLLIYGASNLEDGVPSRFSGSSFGTDFTLTISSLEDEDMATYFCLQHTYLPRTFGGGTKLEIRR

Positions count from the first letter of the chain named.

T1 sequence (Q8NHL6 24-458 limits assumed): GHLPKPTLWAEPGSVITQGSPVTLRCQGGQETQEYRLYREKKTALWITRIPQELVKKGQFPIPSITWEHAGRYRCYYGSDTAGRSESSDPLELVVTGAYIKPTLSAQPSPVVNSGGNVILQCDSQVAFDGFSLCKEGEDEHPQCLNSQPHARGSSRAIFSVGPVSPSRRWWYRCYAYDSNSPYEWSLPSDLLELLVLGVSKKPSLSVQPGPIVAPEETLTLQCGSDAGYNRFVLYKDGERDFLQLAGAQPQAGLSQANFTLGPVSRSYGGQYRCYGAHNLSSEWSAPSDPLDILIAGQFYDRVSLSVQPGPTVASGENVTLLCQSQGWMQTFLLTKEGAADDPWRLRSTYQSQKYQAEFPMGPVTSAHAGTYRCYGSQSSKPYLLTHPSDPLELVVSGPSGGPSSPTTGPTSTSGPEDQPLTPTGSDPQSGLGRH

The test has as its target T1, human LILRB1 (human, UniProt Q8NHL6 24-458, limits assumed).
T1 construct: also called hLILRB1
Description: Octet off-rate ranking.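 Note: antibody dissociation rate constants against cynomolgus LILRB2 plus human LILRB1, LILRB2, LILRA1 and LILRA2, measured on an Octet instrument to rank binding.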 In general terms: BLI is a label-free optical method that tracks binding on a fibre tip over time.
Description: Binding affinity of anti-LILRB1 and anti-LILRB2 antibodies against human LILRB1, LILRB2, LILRA1, LILRA2 and cynomolgus LILRB2 was ranked by measuring dissociation rate constant (Kdis) using the Octet system.
Turning to B1, the koff (commonly the first-order rate constant of dissociation) worked out at 8.15e-05 s⁻¹.

In the case of B2, the off-rate constant (koff) worked out at 4.78e-05 s⁻¹.

Turning to B3, the off-rate constant (koff) amounted to 0.000141 s⁻¹.

B4 came in with a koff of 0.00131 s⁻¹.

B5 showed a koff of 0.000103 s⁻¹.

With B6, the koff turned out to be 0.000312 s⁻¹.

Molecule B7 registered a koff of 0.000218 s⁻¹.

Take B8: the koff was 0.00059 s⁻¹.

Molecule B9 came in with a dissociation rate constant (koff) of 0.00059 s⁻¹.
